Reference: article PMC11310338

Biological target: phosphorylated CTD peptide (pS2pS5) of RNAP2 labeled with an NH2 terminal FITC group
Experiment: fluorescence polarisation

Row | Kd | Binder
1 | 622 nM | SCAF8-CID domain fragment comprising residues 1-139 (domain or fragment) MEAVKTFNSELYSLNDYKPPISKAKMTQITKAAIKAIKFYKHVVQSVEKFIQKCKPEYKVPGLYVIDSIVRQSRHQFGQEKDVFAPRFSNNIISTFQNLYRCPGDDKSKIVRVLNLWQKNNVFKSEIIQPLLDMAAGIP
2 | 366 nM | Human SCAF4-CID domain fragment comprising residues 1-139 (domain or fragment) MDAVNAFNQELFSLMDMKPPISRAKMILITKAAIKAIKLYKHVVQIVEKFIKKCKPEYKVPGLYVIDSIVRQSRHQFGTDKDVFGPRFSKNITATFQYLYLCPSEDKSKIVRVLNLWQKNGVFKIEIIQPLLDMAAGTS
